Reference: the DeepSol protein solubility set

Assay: soluble on expression in E. coli; label from the status in PepcDB or PDB records

Sequence	soluble on expression in E. coli
MLKFNEEQQIKDIRGALALRSDVEKVVDQVWTKGFDAVYYIGIGGTYASAMQAVTYANGKSNLPIYVQHAAEYYTTGNKRLTEKSFVILSSVTGTTQEVVQAVQEIKKVGATLFGFIDAKDSLLADLCDYVVTYPAPGTEQIKFFMVADRLMQKNNEFTDYENYYQELEEYLPTGLAEAEKSADAFGLAFAEKHRHDSIHYFIGAGNQWGAVYSYAMCYWEEQSWLRSKSIHAAEFLHGTLEIVDETTPVTLFIGEDEQRPLAERVAKLLPKICANYTIIDSKAYELPGISEKYRGRVVSFLLMHAVTQRIDAHVEKLNCHPLEIRRYYRQFDY	not soluble
GSDEKRLHFGNGHLKLPGLRTYVDPHTYEDPTQTVHEFAKELDATNISIDKVVGAGEFGEVCSGRLKLPSKKEISVAIKTLKVGYTEKQRRDFLGEASIMGQFDHPNIIRLEGVVTKSKPVMIVTEYMENGSLDSFLRKHDAQFTVIQLVGMLRGIASGMKYLSDMGYVHRDLAARNILINSNLVCKVSDFGLSRVLEDDPEAAYTTRGGKIPIRWTSPEAIAYRKFTSASDVWSYGIVLWEVMSYGERPYWEMSNQDVIKAVDEGYRLPPPMDCPAALYQLMLDCWQKDRNNRPKFEQIVSILDKLIRNPGSLKIITSAAARPSNLLLDQSNVDITTFRTTGDWLNGVWTAHCKEIFTGVEYSSCDTIAKIS	soluble
MDNVSNVRTGGCHCGAVRFEVTLSDGFDSIRRCTCSYCRMRGAVVAMAEMGGIKILQGEEVLTTYRFHTRAAQHFFCSRCGIYTHHQRRSNQNLYAVNVACLDGVSPFDFTEVPVMDGINHTNDTGQPTRRAGTLRFIASE	not soluble
MRTDPERFILDNAAIMHPPHVPELRLHLATEAHELWLKTEEELEEIGLPPPFWAFAWAGGQGLARYILDHPESVCGKRVLDFASGSGLVAIAAAKAGAAKVLAADIDPWTETAIRLNAALNGVDIGFTGLDLVGKPVDADVLLAGDVFYDRAFADLLVPWFVELTEKGMIVLVGDPGRAYLPKERLRAEATYQVPVTRALEDSDVKKTTVWRFILEHHHHHH	soluble
GPLGSSYSMEQVEGITSEYIVKNADMFAVAVSLVSGKILYISNQVASIFHCKKDAFSDAKFVEFLAPHDVSVFHSYTTPYKLPPWSVCSGLDSFTQECMEEKSFFCRVSVGKHHENEIRYQPFRMTPYLVKVQEQQGAESQLCCLLLAERVHSGYEAPRIPPEKRIFTTTHTPNCLFQAVDERAVPLLGYLPQDLIETPVLVQLHPSDRPLMLAIHKKILQAGGQPFDYSPIRFRTRNGEYITLDTSWSSFINPWSRKISFIIGRHKVRVGPLNEDVFAAPPCPEEKTPHPSVQELTEQIHRLLMQPVP	soluble
SSKAIPKQDIPEIAYERFTLPNGLTVIVHEDHKAPVIAVNVWYHIGSADEPARKTGFAHLFEHLMFSGSENHKASYFQPFEKIGATGMNGTTWFDRTNYFQTVPTTALDMALWMESDRMGHLLGAIGQKELDTQRGVVKNEKRQRENVPYGRVTQNILSNLFPANHPYQHSTIGSMEDLEAASLADVKSWFQAHYGAANATLVLAGDITLAEARDKAAKYFGDIPAGPPVA	not soluble
MGSDKIHHHHHHMNIFDNILSSATIFKNRDVLRHSYTPEKLPHREEQINQLALLLSPMLRGGTPSNIFIYGKTGTGKTATVLFVARQLEEASRKAKLNVAVHYINCEIVDTAYRVLASLARKFGSNVPMTGWPTDQVYEEVKKALERRGTRVVVILDEIDKLVKKAEEALYGLTRINSELENSSICIVGISNNLKFKEYLDARILSSLSEEEIVFPPYNAEQLEDILQQRAKLAFEDGVLEDGVIQLCAAIAAQEHGDARKALDLLRVSAEIAERERDSMVRVEHVKKAVRKIETDYMIETVRTLPVHSKILLYSMSLISENSPKFTTGEVYCVYKKLCGKVGVDPLTQRRISDLISELDMLGILNSVVISKGRYGRTREMKLEADEKVLRKALEEDYRLQNLRKFEGELKKLANLNLFQF	not soluble
MPLVTRNIEPRHLCRQTLPSVRSELECVTNITLANVIRQLGSLSKYAEDIFGELFTQANTFASRVSSLAERVDRLQVKVTQLDPKEEEVSLQGINTRKAFRSSTIQDQKLFDRNSLPVPVLETYNTCDTPPPLNNLTPYRDDGKEALKFYTDPSYFFDLWKEKMLQDTKDIMKEKRKHRKEKKDNPNRGNVNPRKIKTRKEEWEKMKMGQEFVESKEKLGTSGYPPTLVYQNGSIGCVENVDASSYPPPPQSDSASSPSPSFSEDNLPPPPAEFSYPVDNQRGSGLAGPKRSSVVSPSHPPPAPPLGSPPGPKPGFAPPPAPPPPPPPMIGIPPPPPPVGFGSPGTPPPPSPPSFPPHPDFAAPPPPPPPPAADYPTLPPPPLSQPTGGAPPPPPPPPPPGPPPPPFTGADGQPAIPPPLSDTTKPKSSLPAVSDARSDLLSAIRQGFQLRRVEEQREQEKRDVVGNDVATILSRRIAVEYSDSEDDSSEFDEDDWSD	soluble
MLRKQARQRREYLYNKALTERLKSKQKIQETVVKSINENKAIGSKNVKKSLTAYKSLKYADEGVDDRTVNDEYHYAGCEDPKIMLTTSHNPSSRLKMFMKELRLIIPNAQQMNRGNYQLTTLMHACRANNVTDFLIVHEHRGIPDSLVVCHLPYGPTAFFNISDVVMRHDIPDIGHMSEQKPHLIFNNFKTPIGLRTVKILKHLFPVPKENSQRVMSFLNHNDSIIFRHHQYKYVNKELELTEVGPRFSLKLYQIKLGTLENIKAADTEWINRPYMNTSQKRLIFSNDPGIINKDTEALEHHHHHH	soluble
MPEPTKKEEPSKEKEAGTTPAKDWTLVETPPGEEQAKQNANSQLSILFIEKPQGGTVKVGEDITFIAKVKAEDLLRKPTIKWFKGKWMDLASKAGKHLQLKETFERHSRVYTFEMQIIKAKDNFAGNYRCEVTYKDKFDSCSFDLEVHESTGTTPNIDIRSAFKRSGEGQEDAGELDFSGLLKRREVKQQEEEPQVDVWELLKNAKPSEYEKIAFQYGITDLRGMLKRLKRMRREEKKSAAFAKILDPAYQVDKGGRVRFVVELADPKLEVKWYKNGQEIRPSTKYIFEHKGCQRILFINNCQMTDDSEYYVTAGDEKCSTELFVREPPIMVTKQLEDTTAYCGERVELECEVSEDDANVKWFKNGEEIIPGPKSRYRIRVEGKKHILIIEGATKADAAEYSVMTTGGQSSAKLSVDLKPLKILTPLTDQTVNLGKEICLKCEISENIPGKWTKNGLPVQESDRLKVVQKGRIHKLVIANALTEDEGDYVFAPDAYNVTLPAKVHVIDPPKIILDGLDADNTVTVIAGNKLRLEIPISGEPPPKAMWSRGDKAIMEGSGRIRTESYPDSSTLVIDIAERDDSGVYHINLKNEAGEAHASIKVKVVDFPDPPVAPTVTEVGDDWCIMNWEPPAYDGGSPILGYFIERKKKQSSRWMRLNFDLCKETTFEPKKMIEGVAYEVRIFAVNAIGISKPSMPSRPFVPLAVTSPPTLLTVDSVTDTTVTMRWRPPDHIGAAGLDGYVLEYCFEGTEDWIVANKDLIDKTKFTITGLPTDAKIFVRVKAVNAAGASEPKYYSQPILVKEIIEPPKIRIPRHLKQTYIRRVGEAVNLVIPFQGKPRPELTWKKDGAEIDKNQINIRNSETDTIIFIRKAERSHSGKYDLQVKVDKFVETASIDIQIIDRPGPPQIVKIEDVWGENVALTWTPPKDDGNAAITGYTIQKADKKSMEWFTVIEHYHRTSATITELVIGNEYYFRVFSENMCGLSEDATMTKESAVIARDGKIYKNPVYEDFDFSEAPMFTQPLVNTYAIAGYNATLNCSVRGNPKPKITWMKNKVAIVDDPRYRMFSNQGVCTLEIRKPSPYDGGTYCCKAVNDLGTVEIECKLEVKV	soluble
MGSDKIHHHHHHLLDYAGAIEEFSHALQLTPYFAEAYLQRGLAYYDSGAILKAVSDYTEALKLNPESVEAYYCRGLARVALKNLPGALEDVERAIRLNLNYAAAYNLRGMVRRKQGYVQDAIANFKKAAQLYLEQQDKENCRLCLERIKQLQPQELPVLQQSRSPNAPILSTNDYFTQLLEKAEKGDTQEALADLNWVLKADSQDAQAYCCRGVVRCKMGDYREAIADFNQALRLNFQDAIVYRNRGKARSILGDHQGAIADLNQALQMQPQDALVYIARGNAYRSTGNYLGAIQDYTQALQINPDDAQAYYNRGIAYTCLEEMQNAVEDYQRAASIFCEQEDWGNYQQVLSSLEKIQKFSPQSKKQKYNLLHQRLLQMVGGYWEIAERLIQQKQDYHPGMSDEWYLQKVIDDLERDRGR	not soluble
MKQVPPAAPVAPWLGGKKRLHPLILERIEAIPHRAYVEPFVGMGGIFLRRRFRPRLEVMNDRNGEIINLFRILQRHYPQLLEIMRFQICSRREFDRLRLTDPATLTDLERAARFLYLQRLSFGGKPNGSFGISPGNGPLFSLARLEPLLDAARTRLDGVVFECLDWADLIPRYDTAETLFYLDPPYFGGENDYGKGLFDRAQFARIAEILGSLKGAFLLSINDTPEIRALFGRFHLEPVRLNYSVSAAGSTEAQELLVSNRERIATLL	not soluble
MSLHRISDRFPVHVVVWPVKVQGEGSGEEVANAIRGFNALKPGGDIARPDVLIVARGGGSLEDLWSFNDEIVVRAAAESEIPLISAVGHETDTTLIDYAADVRAPTPTGAAEMAVPVRAELEAQLSGLAARLSGSVSRQMDNRRQGVRALVRALPSLDQLLALPRRRFDEAASGLGRGLELTTLNKRRAFERSASGLRPETLLNGLKHHRQRITERMHRAETLVEREGHHHHHH	soluble
MLARVCERTPISTPAWTDTLTRLAPDASSVLARGPWTWKYALPPAVVGVAALAASSPWGVVGVALAAFVVWFHRDPDRSPNGAGVVVPADGTVSVIRTRDDGRVRVGVFMNVHNVHVNRVPVAGRVESVVHEPGGHRPAFSKESAHNERVRIETAEWTVVLIAGAFARRIHPYVEAGEDLARGDRLGHISFGSRADVVLPPAYDRGDVVVESGQTVRAGETVLARLEHHHHHH	soluble
MAHHHHHHMELGTPNVLPGYDASKSANGSENAKTIISDVNANYNAERKNHTVTHNDEKEGTTHDGGGDEPPQTHSNTERDKEDKIKFEKKKKKSDKLKKEREKEIVVAYWLKGIVKILNAGLKNGDIKGSNFIGKKIAEVLKKVVEISHWNNVYDLIEIIKYLGKEIIRNNKMYFIIPNIIRRVLTIIRTEHFKQLYLYNNNYVDNLNKNNNFLVDKNTNKCINSKYVYEREIKNFEQSFSFYFENNSKKNTYHIPATNTLRHSIIEGITELIADIDTSWGETEQRTSYDLFMENDVILTMGYSVGVEKFLKNINKKKDGISVIVVGGDINRNGFRMAQLLSEDGVDTTYISDSAVFAVIPKVTKVVLGSVAVSSSGGVITKIGGYNIACSAQFNSKPVTIVLPLFKLINDPFYDPIRQNELQPGPSMIYNDADNLYVRIPKYDYIPEHLITLYITEIGPVDSFQLYNITKRTYHPDDLDLSFD	not soluble
MSLSRLLNDFNQSLKKGFIDKDISHKGNYTPKLLVNNKNEKVLSTIIDELQKCETFYFSVAFITESGLASLKAQLLDLSNKGVKGKILTSNYLGFNSPKMYGELLKLKNVEVRLTDIAGFHAKGYIFEHKDYSSMVIGSSNLTSNALKVNYEHNVLLSTMKNGDLVDSVKNEFELLWQKSTPLTEQWINSYKESFEYRSLEKLAEVEQTQMLLADKVKKSVEIVPNLMQAEALRSLKAIRDKTKDKALIISATGTGKTILCALDVREVNPNKFLFIVHNEGILNRAKEEFKKVLPIKNDSDFGLLTGKHRDVDAKYLFATIQTLSRDDNFKQFDENEFDYIVFDEAHRSAASTYQRVFNYFKPKFMLGMTATPERSDELSIFELFDYNIAYEIRLQAALESDILCPFHYFGVTDYVHQGIKEDDVTKLRYLTSDERVNYIIQKTDEGHHHHHH	not soluble
